Laboratory results taken from patent US20100260765A1 (AstraZeneca / MedImmune, published 2010).

What was measured:
Assay in all cases: cell-based or functional assay
human KDR on cells = human KDR on cells (human, UniProt P35968 20-1356)
KDR [1] = molecular target: T1, KDR (human, UniProt P35968 20-1356)
KDR [2] = molecular target: T1, KDR; remark: listed apart in the source
KDR [3] = molecular target: T1, KDR; remark: listed apart in the source
KDR [4] = molecular target: T1, KDR; remark: listed apart in the source
KDR [5] = molecular target: T1, KDR; remark: listed apart in the source

Sequence of human KDR on cells (P35968 20-1356): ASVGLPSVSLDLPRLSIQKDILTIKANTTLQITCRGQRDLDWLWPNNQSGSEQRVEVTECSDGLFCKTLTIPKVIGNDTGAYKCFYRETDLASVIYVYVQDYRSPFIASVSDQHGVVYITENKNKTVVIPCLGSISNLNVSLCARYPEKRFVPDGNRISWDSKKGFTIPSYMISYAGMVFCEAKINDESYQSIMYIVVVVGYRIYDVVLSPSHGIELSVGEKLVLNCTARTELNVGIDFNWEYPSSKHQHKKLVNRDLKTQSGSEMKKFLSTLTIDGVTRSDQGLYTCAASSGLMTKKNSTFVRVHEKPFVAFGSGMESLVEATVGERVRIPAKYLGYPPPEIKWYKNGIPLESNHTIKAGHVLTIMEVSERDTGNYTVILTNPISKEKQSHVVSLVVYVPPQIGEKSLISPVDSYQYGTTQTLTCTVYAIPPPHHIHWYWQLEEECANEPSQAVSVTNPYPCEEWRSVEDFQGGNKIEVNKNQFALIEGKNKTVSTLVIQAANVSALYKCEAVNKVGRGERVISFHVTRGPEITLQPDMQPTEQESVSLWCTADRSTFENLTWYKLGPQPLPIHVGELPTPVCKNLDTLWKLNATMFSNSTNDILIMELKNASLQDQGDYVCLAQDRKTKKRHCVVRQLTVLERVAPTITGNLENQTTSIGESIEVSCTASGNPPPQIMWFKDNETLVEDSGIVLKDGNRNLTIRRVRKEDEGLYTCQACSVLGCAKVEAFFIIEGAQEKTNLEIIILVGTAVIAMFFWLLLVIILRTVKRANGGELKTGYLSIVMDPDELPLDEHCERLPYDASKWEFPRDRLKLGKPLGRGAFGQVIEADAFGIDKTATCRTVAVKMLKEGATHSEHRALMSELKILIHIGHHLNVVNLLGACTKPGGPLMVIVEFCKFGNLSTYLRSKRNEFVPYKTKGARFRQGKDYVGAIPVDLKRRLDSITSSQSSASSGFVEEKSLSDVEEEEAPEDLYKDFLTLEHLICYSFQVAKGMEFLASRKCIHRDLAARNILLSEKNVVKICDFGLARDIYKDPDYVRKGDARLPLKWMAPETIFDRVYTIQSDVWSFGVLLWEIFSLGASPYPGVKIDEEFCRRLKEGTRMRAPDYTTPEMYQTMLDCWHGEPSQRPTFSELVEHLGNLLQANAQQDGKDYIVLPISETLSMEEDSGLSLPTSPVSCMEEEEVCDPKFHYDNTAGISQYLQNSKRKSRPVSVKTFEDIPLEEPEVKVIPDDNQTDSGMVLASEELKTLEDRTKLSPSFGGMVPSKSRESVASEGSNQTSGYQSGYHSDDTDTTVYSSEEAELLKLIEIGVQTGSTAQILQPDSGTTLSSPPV
T1 sequence (P35968 20-1356): as above

Binder	% Inhibition (Average) of VEGF-C-mediated KDR activity, antibody 1 nM (human KDR on cells) [%]	% Inhibition (Average) of VEGF-C-mediated KDR activity, antibody 10 nM (human KDR on cells) [%]	% Inhibition (Average) of VEGF-C-mediated KDR activity, antibody 100 nM (human KDR on cells) [%]	% Inhibition (N = 1) of VEGF-C-mediated KDR activity, antibody 1 nM (human KDR on cells) [%]	% Inhibition (N = 1) of VEGF-C-mediated KDR activity, antibody 10 nM (human KDR on cells) [%]	% Inhibition (N = 1) of VEGF-C-mediated KDR activity, antibody 100 nM (human KDR on cells) [%]	% Inhibition (N = 2) of VEGF-C-mediated KDR activity, antibody 1 nM (human KDR on cells) [%]	% Inhibition (N = 2) of VEGF-C-mediated KDR activity, antibody 10 nM (human KDR on cells) [%]	% Inhibition (N = 2) of VEGF-C-mediated KDR activity, antibody 100 nM (human KDR on cells) [%]	also measured
22B8 (antibody, V domains shown) VH: QLQLQESGPGLVKPSETLSLTCTVSGGSISSRYYYWGWVRQPPGKGLEWIGTIYYSGHTYYNPSLKTRVTISVDTSKNQFSLKLISVTAADTAVYYCATQQLVLYYFDFWGQGTLVTVSS VL: EIVLTQSPGTLSLSPGERAALSCRASQSISSSYLAWYQQRPGQAPRLLIYGASSRATGIPDRFNGSGSGTDFTLTISRLEPEDFAVYYCQQFGSSITFGQGTRLEIK	27	65	74	38	74	71	17	56	77	
33B1 (antibody, V domains shown) VH: EVQLVESGGGLVKPGGSLRLSCAASGFTFSSYTMNWVRQAPGKGLEWVSFIDSRSSYIYYADSVKGRFTISRDNAKNSLYLQMNSLRAEDTAVYYCSKDDWFEELWGQGTLVTVSS VL: DIQMTQSPSSLSASVGDRVTITCRASQGIRNDLGWYQQKPGKAPKRLIYATSSLQSGVPSRFSGSGSGTEFTLTISSLQPEDFATYYCLHHNSFPWTFGQGTKVEIK	49	62	68	45	61	64	53	62	73	
33D5 (antibody, V domains shown) VH: QVQLVQSGAEVKKPGASVKVSCKASGYTFGSYDINWVRQATGQGLEWMGWMNPNSGNTGYAQKFQGRVTLTRNTSIRTVYMELSSLRSEDTAVYYCARGGYSNLGWFDPWGQGSLVTVSS VL: DIQMTQSPSSVSVSVGDRVTITCRASQGISSWLAWYQQKPGKAPKLLIYAASSLQSGVPSRFSGSGSGTDFTLTISSLQPEDFATYYCQQANSFPFTFGPGTKVDIK										Activity at 133 nM (% Inhibition), 1-hour Pre-incubation at 4° C., Average (KDR [1]): 49%; Activity at 133 nM (% Inhibition), 1-hour Pre-incubation at 4° C., N = 1 (KDR [1]): 39%; Activity at 133 nM (% Inhibition), 1-hour Pre-incubation at 4° C., N = 2 (KDR [1]): 60%; Activity at 133 nM (% Inhibition), 24-hour Pre-incubation at 37° C., Average (KDR [2]): -15%; Activity at 133 nM (% Inhibition), 24-hour Pre-incubation at 37° C., N = 1 (KDR [2]): 8%; Activity at 133 nM (% Inhibition), 24-hour Pre-incubation at 37° C., N = 2 (KDR [2]): -38%; % of Max VEGF KDR pTyr Activity (at 133 nM antibody concentration), Average (KDR [3]): 17%; % of Max VEGF KDR pTyr Activity (at 133 nM antibody concentration), N = 1 (KDR [3]): 20%; % of Max VEGF KDR pTyr Activity (at 133 nM antibody concentration), N = 2 (KDR [3]): 15%; Activity at 133 nM Antibody Concentration (% Survival Inhibition), Average (KDR [4]): 5%; Activity at 133 nM Antibody Concentration (% Survival Inhibition), N = 1 (KDR [4]): 13%; Activity at 133 nM Antibody Concentration (% Survival Inhibition), N = 2 (KDR [4]): -2%; % Inhibition of VEGF165-mediated 6-keto Prostaglandin F1α release at 133 nM Antibody Concentration, Average (KDR [5]): 36%; % Inhibition of VEGF165-mediated 6-keto Prostaglandin F1α release at 133 nM Antibody Concentration, N = 1 (KDR [5]): 15%; % Inhibition of VEGF165-mediated 6-keto Prostaglandin F1α release at 133 nM Antibody Concentration, N = 2 (KDR [5]): 57%
32F4 (antibody, V domains shown) VH: QLQLQESGPGLVKPSGTLSLSCTVSGGSISSRSDYWGWIRQPPGKGLEWIGTIYYSGNTFYNPSLKSRVTISVDTSKKQFSLKLSSVTAADTAVYYCARQQLVLYYFDYWGQGTLVTVSS VL: EIVLTQSPGTLSLSPGERATLSCRTSQSVSSSYLAWYQQKPGQAPRLLIYGASSRATGVPDRFSGSGSGTDFSLTISRLEPEDFAVYYCQQYGSSPPLTFGGGTKVEIK [32F4, listing 1 of 2 here]										Activity at 133 nM (% Inhibition), 1-hour Pre-incubation at 4° C., Average (KDR [1]): 64%; Activity at 133 nM (% Inhibition), 1-hour Pre-incubation at 4° C., N = 1 (KDR [1]): 60%; Activity at 133 nM (% Inhibition), 1-hour Pre-incubation at 4° C., N = 2 (KDR [1]): 68%; Activity at 133 nM (% Inhibition), 24-hour Pre-incubation at 37° C., Average (KDR [2]): 22%; Activity at 133 nM (% Inhibition), 24-hour Pre-incubation at 37° C., N = 1 (KDR [2]): 25%; Activity at 133 nM (% Inhibition), 24-hour Pre-incubation at 37° C., N = 2 (KDR [2]): 18%; Activity at 133 nM Antibody Concentration (% Survival Inhibition), Average (KDR [4]): 73%; Activity at 133 nM Antibody Concentration (% Survival Inhibition), N = 1 (KDR [4]): 88%; Activity at 133 nM Antibody Concentration (% Survival Inhibition), N = 2 (KDR [4]): 58%; % Inhibition of VEGF165-mediated 6-keto Prostaglandin F1α release at 133 nM Antibody Concentration, Average (KDR [5]): 73%; % Inhibition of VEGF165-mediated 6-keto Prostaglandin F1α release at 133 nM Antibody Concentration, N = 1 (KDR [5]): 69%; % Inhibition of VEGF165-mediated 6-keto Prostaglandin F1α release at 133 nM Antibody Concentration, N = 2 (KDR [5]): 76%
27A3 (antibody, V domains shown) VH: QLQLQESGPGLVKPSETLSLTCTVSGGSISSRSDYWGWIRQPPGKGLEWIGTIYYSGDTYYNPSLKSRVTISVDTSKNQFSLKLSSVTAADTAVYYCARQQLVLYYFDYWGQGTLVTVSS VL: EIVLTQSPGTLSLSPGERATLSCRASQSVSSSYLAWYQQKPGQAPRLLIYATSNRATGIPDRFSGSGSGTDFTLTISRLEPEDFAVYYCQQHGSSPPLTFGGGTKVEIK	39	78	75	40	75	73	38	80	77	
32F4 (antibody, V domains shown) VH: QLQLQESGPGLVKPSGTLSLSCTVSGGSISSRSDYWGWIRQPPGKGLEWIGTIYYSGNTFYNPSLKSRVTISVDTSKKQFSLKLSSVTAADTAVYYCARQQLVLYYFDYWGQGTLVTVSS VL: EIVLTQSPGTLSLSPGERATLSCRTSQSVSSSYLAWYQQKPGQAPRLLIYGASSRATGVPDRFSGSGSGTDFSLTISRLEPEDFAVYYCQQYGSSPPLTFGGGTKVEIK [32F4, listing 2 of 2 here]	43	77	81	55	76	75	31	79	86	
21H6 (antibody, V domains shown) VH: QVQLVESGGGLVKPGGSLRLSCAASGFTFSDYYMSWIRQAPGKGLEWVSYISNSGITIYYADSVKGRFTISRDNAKNSLYLQMNSLRAGDTAVYYCAREEWYSSRWYRNFDYWGQGTLVTVSS VL: DIQMTQFSSSLSASVGDRVTITCRASQSISRYLNWYQQKPGKAPKLLIYAASSLQSGVPSRFNGSGSGTDFTLTISSLQPEDFATYYCQQSYSAPLTFGGGTKVEIK	28	84	94	23	78	93	34	90	95	
29D4 (antibody, V domains shown) VH: QLQLQESGPGLVKPSETLSLTCTVSGGSISSRSNYWGWIRQPPGKGLEWIGTIYYSGHTYYNPSLKSRVSISVDTSKNQFSLKLSSVTATDTALYYCARQQLVLYYFEYWGQGTLVTVSS VL: not shown	34	71	76	42	71	74	25	72	79	
33E1 (antibody, V domains shown) VH: QVQLQESGPGLVKPSQTLSLTCTVSGGSISSGDHYWSWIRQHPGKGLEWIGHIYYSGSTDYNPSLKSRVTISVDTSKNHFSLKLNSVTAADTAVYYCARTNSSSWSDWYFDLWGRGTLVTVSS VL: DIVMTQSPDSLAVSLGERATINCKSSQSILYSSNNKNYLAWYQRKPGQPPILLIHWASTRESGVPDRFSGSGSRTDFTLTISSLQAEDVAVYYCQQYFITPWTFGQGTKVEIK	32	69	79	29	75	83	36	64	75	
31E11 (antibody, V domains shown) VH: QVQLVESGGGLVKPGGSLRLSCAASGFTFSDYYMSWIRQAPGKGLEWVSYISISGSTIYYADSVKGRFTISRDNAKNSLYLQMNSLRAEDTAVYYCARDDFWSGYYFNWFDPWGQGTLVTVSS VL: DIQMTQSPSSLSASVGDRVTITCRANQTISTFLNWYQQNPGKAPKLLIYAASSLQSGVPSRFSGSGSGTDFTLTISSLQPEDFATYYCQQTYIIPLTFGGGTKVEIK	40	83	84	47	81	84	33	85	84	
